Key:
[1] = target: T1, KAE1;BUD32;CGI121;PCC1 R73D (Arabidopsis thaliana;Arabidopsis …, UniProt O49653;Q94K14;Q6NMZ4;Q8GWD7 1-353;1-226;1-172;1-96, |||R73D); experiment: MST; Fig S4 legend gives ~372; MST: 20 mM PBS pH 7.5, 300 mM NaCl, 0.05% Tween 20, 25 C, 50 nM RNA; EMSA: 20 mM Tris-HCl pH 7.5, 300 mM NaCl, 5 mM b-mercaptoethanol, 20% glycerol, agarose gel in Tris-glycine pH 8.0 (8.5 for FAM-RNA), 4 C; settings: protein: recombinant;recombinant;recombinant;recombinant; tags: none (6His on partner PCC1);none (6His on partner CGI121);6His (C-term);6His (C-term); chain copies: 2;2;2;2; label: 5' 6-FAM; tRNA cloverleaf
T1 sequence 1: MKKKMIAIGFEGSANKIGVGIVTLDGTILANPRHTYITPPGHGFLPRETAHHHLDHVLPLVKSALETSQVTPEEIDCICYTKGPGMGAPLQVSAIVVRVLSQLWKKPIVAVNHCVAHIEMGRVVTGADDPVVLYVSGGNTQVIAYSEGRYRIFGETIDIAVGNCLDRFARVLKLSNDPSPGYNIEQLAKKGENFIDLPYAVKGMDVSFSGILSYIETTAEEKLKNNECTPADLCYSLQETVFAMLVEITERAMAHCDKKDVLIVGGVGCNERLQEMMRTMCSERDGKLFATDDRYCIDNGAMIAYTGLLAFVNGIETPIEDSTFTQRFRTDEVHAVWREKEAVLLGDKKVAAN
T1 sequence 2: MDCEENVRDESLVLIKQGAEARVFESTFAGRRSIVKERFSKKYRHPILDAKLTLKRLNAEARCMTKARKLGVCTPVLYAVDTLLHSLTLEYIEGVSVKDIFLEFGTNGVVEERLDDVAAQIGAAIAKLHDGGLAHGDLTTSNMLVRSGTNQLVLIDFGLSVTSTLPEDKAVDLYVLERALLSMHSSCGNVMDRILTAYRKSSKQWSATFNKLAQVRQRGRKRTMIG
T1 sequence 3: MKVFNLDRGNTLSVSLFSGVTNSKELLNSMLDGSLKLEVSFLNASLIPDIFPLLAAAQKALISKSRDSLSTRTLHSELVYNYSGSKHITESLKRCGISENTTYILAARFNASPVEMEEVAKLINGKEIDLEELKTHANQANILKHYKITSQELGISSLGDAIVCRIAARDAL
T1 sequence 4: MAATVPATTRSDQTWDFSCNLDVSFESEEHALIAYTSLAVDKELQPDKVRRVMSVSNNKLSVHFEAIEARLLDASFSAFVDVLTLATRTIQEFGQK

[2] = target: T2, KAE1 mutant-2;BUD32;CGI121;PCC1 (Arabidopsis thaliana;Arabidopsis …, UniProt O49653;Q94K14;Q6NMZ4;Q8GWD7 1-353;1-226;1-172;1-96, G43E;F44R;L45K;P46R;R47D;E48K|||); experiment: EMSA; conflicts with MST; MST: 20 mM PBS pH 7.5, 300 mM NaCl, 0.05% Tween 20, 25 C, 50 nM RNA; EMSA: 20 mM Tris-HCl pH 7.5, 300 mM NaCl, 5 mM b-mercaptoethanol, 20% glycerol, agarose gel in Tris-glycine pH 8.0 (8.5 for FAM-RNA), 4 C; settings: protein: recombinant;recombinant;recombinant;recombinant; tags: ;none (6His on partner CGI121);6His (C-term);6His (C-term); chain copies: 2;2;2;2; label: 5' 6-FAM; tRNA cloverleaf
T2 sequence 1: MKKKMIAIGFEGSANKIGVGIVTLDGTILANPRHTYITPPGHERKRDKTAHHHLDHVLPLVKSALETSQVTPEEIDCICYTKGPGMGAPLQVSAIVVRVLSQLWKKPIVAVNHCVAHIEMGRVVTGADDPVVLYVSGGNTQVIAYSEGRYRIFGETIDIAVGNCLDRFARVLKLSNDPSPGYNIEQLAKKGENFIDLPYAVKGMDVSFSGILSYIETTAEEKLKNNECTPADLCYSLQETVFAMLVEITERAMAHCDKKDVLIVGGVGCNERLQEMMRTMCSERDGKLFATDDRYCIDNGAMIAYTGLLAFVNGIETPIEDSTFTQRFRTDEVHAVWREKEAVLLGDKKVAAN
T2 sequence 2: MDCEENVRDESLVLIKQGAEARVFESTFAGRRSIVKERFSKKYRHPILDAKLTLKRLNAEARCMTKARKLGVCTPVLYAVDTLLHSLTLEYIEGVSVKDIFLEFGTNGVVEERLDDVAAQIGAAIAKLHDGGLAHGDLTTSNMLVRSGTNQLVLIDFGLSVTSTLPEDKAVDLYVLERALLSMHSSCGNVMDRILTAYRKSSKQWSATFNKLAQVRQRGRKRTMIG
T2 sequence 3: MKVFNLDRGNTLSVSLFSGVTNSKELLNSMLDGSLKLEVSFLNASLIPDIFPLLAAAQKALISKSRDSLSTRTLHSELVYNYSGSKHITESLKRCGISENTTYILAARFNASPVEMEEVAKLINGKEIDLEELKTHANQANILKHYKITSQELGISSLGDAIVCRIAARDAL
T2 sequence 4: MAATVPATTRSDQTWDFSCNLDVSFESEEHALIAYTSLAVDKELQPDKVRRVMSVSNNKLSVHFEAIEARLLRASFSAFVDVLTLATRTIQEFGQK

BUD32;CGI121 = target: T3, BUD32;CGI121 (Arabidopsis thaliana;Arabidopsis …, UniProt Q94K14;Q6NMZ4 1-226;1-172, |); experiment: MST; MST: 20 mM PBS pH 7.5, 300 mM NaCl, 0.05% Tween 20, 25 C, 50 nM RNA; EMSA: 20 mM Tris-HCl pH 7.5, 300 mM NaCl, 5 mM b-mercaptoethanol, 20% glycerol, agarose gel in Tris-glycine pH 8.0 (8.5 for FAM-RNA), 4 C; settings: protein: recombinant;recombinant; tags: none (6His on partner CGI121);6His (C-term); copies: 1;1; label: 5' 6-FAM; tRNA cloverleaf
T3 sequence 1: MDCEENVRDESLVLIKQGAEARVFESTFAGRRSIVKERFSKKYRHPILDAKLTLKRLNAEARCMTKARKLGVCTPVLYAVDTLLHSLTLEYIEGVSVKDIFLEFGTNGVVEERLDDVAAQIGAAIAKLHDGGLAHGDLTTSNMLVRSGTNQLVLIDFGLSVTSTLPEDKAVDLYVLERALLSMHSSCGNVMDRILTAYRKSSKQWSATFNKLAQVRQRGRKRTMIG
T3 sequence 2: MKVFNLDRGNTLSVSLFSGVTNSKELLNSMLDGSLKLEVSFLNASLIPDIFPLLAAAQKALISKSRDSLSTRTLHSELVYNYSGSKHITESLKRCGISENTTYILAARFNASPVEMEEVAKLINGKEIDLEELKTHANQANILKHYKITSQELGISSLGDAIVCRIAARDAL

[3] = target: T4, KAE1 R284C;BUD32;CGI121;PCC1 (Arabidopsis thaliana;Arabidopsis …, UniProt O49653;Q94K14;Q6NMZ4;Q8GWD7 1-353;1-226;1-172;1-96, R284C|||); experiment: EMSA; 1:5 RNA:protein; MST: 20 mM PBS pH 7.5, 300 mM NaCl, 0.05% Tween 20, 25 C, 50 nM RNA; EMSA: 20 mM Tris-HCl pH 7.5, 300 mM NaCl, 5 mM b-mercaptoethanol, 20% glycerol, agarose gel in Tris-glycine pH 8.0 (8.5 for FAM-RNA), 4 C; settings: protein: recombinant;recombinant;recombinant;recombinant; tags: ;none (6His on partner CGI121);6His (C-term);6His (C-term); chain copies: 2;2;2;2; label: 5' 6-FAM; tRNA cloverleaf
T4 sequence 1: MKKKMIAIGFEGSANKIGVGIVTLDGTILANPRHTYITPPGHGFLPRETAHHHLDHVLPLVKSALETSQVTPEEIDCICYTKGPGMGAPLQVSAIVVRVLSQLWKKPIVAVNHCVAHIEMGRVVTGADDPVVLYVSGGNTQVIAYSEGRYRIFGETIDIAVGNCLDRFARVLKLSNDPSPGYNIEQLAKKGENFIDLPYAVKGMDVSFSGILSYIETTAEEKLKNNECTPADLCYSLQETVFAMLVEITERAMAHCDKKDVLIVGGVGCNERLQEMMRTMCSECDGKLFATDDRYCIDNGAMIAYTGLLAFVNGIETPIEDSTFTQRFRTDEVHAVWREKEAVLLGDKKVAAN
T4 sequence 2: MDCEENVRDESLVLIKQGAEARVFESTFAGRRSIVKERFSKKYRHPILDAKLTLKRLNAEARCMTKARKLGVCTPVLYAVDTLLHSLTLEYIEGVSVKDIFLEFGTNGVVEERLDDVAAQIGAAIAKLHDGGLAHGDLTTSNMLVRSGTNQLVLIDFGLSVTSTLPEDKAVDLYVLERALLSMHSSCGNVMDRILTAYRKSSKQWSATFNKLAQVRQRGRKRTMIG
T4 sequence 3: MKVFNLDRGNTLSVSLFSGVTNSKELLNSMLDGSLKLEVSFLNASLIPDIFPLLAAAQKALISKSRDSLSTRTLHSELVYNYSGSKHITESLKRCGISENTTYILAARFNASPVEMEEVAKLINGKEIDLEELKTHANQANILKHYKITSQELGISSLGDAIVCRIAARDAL
T4 sequence 4: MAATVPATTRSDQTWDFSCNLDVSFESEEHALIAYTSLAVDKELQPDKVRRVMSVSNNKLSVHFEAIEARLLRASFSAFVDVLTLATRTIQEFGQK

B1: 5'-6FAM-tRNAArgCCU (structured_RNA)
RNA: GCGCCUGUAGCUCAGUGGAUAGAGCGUCUGUUUCCUAAGCAGAAGGUCGUAGGUUCGACCCCUACCUGGCGCGCCA
Kd [1]: 353 ± 40 µM | binding result [2]: binds | Kd (BUD32;CGI121): 61.6 ± 15 µM | binding result [3]: binds

From article PMC11077089, “Molecular basis of A. thaliana KEOPS complex in biosynthesizing tRNA t6A”
